Measurements from patent publication US20050227302A1, “Induction of apoptosis via ARTS-IAP complexes” (priority 2004, published 2005).
Where a SMILES comes first, the peptide text is derived from it. The star is where a group is joined. Cbz = O=C(OCc1ccccc1)*

Key:
XIAP [1] = experiment: XIAP protein levels by Western blot in COS-7 cells; format: cell-based, African Green Monkey
Experimental: (§1) Protein extracts were prepared with lysis buffer (150 mM NaCl, 50 mM Tris-HCl (pH 8), 1% NP-40, 0.5% deoxycholate acid) with protease inhibitors. Lysates containing equal amounts of total protein were pre-cleared overnight with 1 mg mouse IgG (Sigma) coupled with protein A/G-Sepharose mix (Amersham Biosciences) and the beads centrifuged. Supernatants were immuno-precipitated using 5 μl of anti-ARTS antibody for 4 h, anti-XIAP antibody, rabbit anti-myc antibody, or mouse IgG (negative control). Protein A/G Sepharose beads were added for 1 hour and washed four times with PBS. Antibodies against XIAP (as above), Myc (Santa Cruz), or anti-ARTS (NT) antibodies directed against the common N′ terminus of ARTS and H5 (ProSci Incorporated) were used for Western blot.
(§2) Stably transfected COS-7 pE-ARTS cells were generated using the pEF1-IRES vector (Hobbs S et al, Biochem Biophys Res Commun 252: 368-372, 1998). The construct contains an EF-1 promoter followed by a multi cloning site, an EMC (Encephalomyocarditis virus) internal ribosome entry sites (IRES), and a puromycin resistance gene. AU5-tagged ARTS was inserted into the XhoI site downstream of the EF-1 promoter. The construct was stably transfected into COS-7 cells. The cells were maintained in medium containing 4 μg/ml puromycin.
Cells were treated for 2 hours with […] of the proteasome inhibitor (MG132, Calbiochem) prior to induction of apoptotis.

XIAP [2] = experiment: Co-immunoprecipitation of ARTS-XIAP complexes in COS-7 cells; format: cell-based, African Green Monkey
Experimental: as §1

COS-7 cells [3] = experiment: Immunofluorescence of ARTS and XIAP localization in COS-7 cells; format: cell-based, African Green Monkey; settings: COS-7 cells, 50 μM etoposide for 16 hour, with BOC
Experimental: Cells were fixed with 4% paraformaldehyde in PBS for 20 min at room temperature, washed with PBS, permeabilized with 0.5% Triton-X in PBS for 5 min, and incubated with primary antibodies for 2 hours at room temperature (rabbit polyclonal anti-ARTS (1:20,000; Sigma), monoclonal anti-ARTS, and/or monoclonal anti-XIAP (1:500; used in subsequent Examples). Cells were washed three times with PBS/0.1% Triton-X and incubated with FITC conjugated anti-mouse and Rhodamin^TX-conjugated anti-rabbit secondary antibodies (Jackson). Images were analyzed using a confocal laser microscope (Zeiss LSM 510). Mitochondria were visualized with MitoTracker® Red CMXRos (Molecular Probes/Invitrogen).
For caspase inhibition, we added […] of BOC-Asp(Ome)CH2F (Enzyme Systems Products) one hour prior to addition of the apoptotic agents.

[4] = biological target: T1, Myc epitope-tagged wild-type XIAP (Homo sapiens (Human), UniProt P98170 1-497); experiment: co-IP with agarose-anti-myc beads from co-transfected COS-7 cells, Western blot
T1 construct: Expressed by transient transfection in COS-7 cells and used as cell lysate; The construct came from Dr. Colin S. Duckett; also called myc-tagged XIAP; mycXIAP
Experimental: FIG. 4. ARTS binding to XIAP is specific and related to its apoptotic function. A. In-vivo binding of ARTS to XIAP was tested using co-IP with anti-ARTS, anti-XIAP or mouse IgG as a negative control, followed by anti-XIAP Western blot. B. Lysates of COS-7 cells co-transfected with pcDNA-mycXIAP and AU5-ARTS, AU5-ARTSmGTP or H5 DC were co-immunoprecipitated using agarose-anti-myc beads, followed by Western blot analysis with rabbit anti-myc and anti-ARTS. […] COS-7 cells were transiently transfected with AU5-ARTS, AU5-ARTSmGTP, AU5-ARTSDC or AU5-PNUTL2, and percent apoptosis determined. […] P-values (Anova) were 0.03 for non-treated cells, compared to 0.000004 for 1 hr and 0.00001 for 3 hr STS treatment.
as §1, with “Antibodies against XIAP (as above), Myc (Santa Cruz), or anti-ARTS (NT) antibodies directed against the common N′ terminus of ARTS and H5 (ProSci Incorporated) were used for Western blot.” left out

GST-XIAP fusion protein = biological target: T2, GST-XIAP fusion protein (Homo sapiens (Human), UniProt P98170 1-497); experiment: GST-XIAP pull-down from lysate of transfected COS-7 cells, Western blot with anti-AU5
T2 construct: also called pGEX-XIAP; not shown: glutathione-S-transferase (GST) of a pGEX vector
Experimental: FIG. 3. ARTS specifically binds XIAP in vitro. In vitro binding was tested using a GST pull-down assay. A-B. COS-7 cells were transiently transfected with myc-tagged XIAP. GST pull-down was performed using GST-ARTS and Western blot using anti-XIAP and (A) and anti myc (B). C. COS-7 cells were transiently transfected with AU5-ARTS, AU5-ARTSDC or AU5-H5. GST pull down was performed using GST-XIAP and Western blot with anti-AU5. Binding to glutathione beads alone served as a negative control.
Cells were lysed in RIPA buffer (150 mM NaCl, 50 mM Tris-HCl (pH 8), 1% NP-40, 0.1% SDS, 0.5% deoxycholate acid containing protease inhibitors (mini Complete, Roche)). Samples were divided into two tubes; one was rotated for 4 h at 4° C. with GST-ARTS fusion protein coupled with the glutathione beads, or GST-XIAP fusion protein. The second tube was incubated with glutathione beads alone (negative control). Samples were centrifuged at 4000-RPM at 4° C. for 4 minute and washed five times in lysis buffer, then boiled in sample buffer for 5 minutes to elute bound proteins Proteins were separated on 12.5% SDS-PAGE gel followed by Western blot analysis using monoclonal anti-ARTS antibody (Sigma), monoclonal anti-XIAP antibody (BD Transduction Laboratories) or monoclonal anti-myc antibody (Clontech). […]

XIAP [5] = biological target: T3, XIAP (Homo sapiens, UniProt P98170); experiment: GST pull-down assay of ARTS and XIAP; format: binding; settings: lysates of COS-7 cells transfected with AU5-tagged construct; Western blot anti-AU5
T3 construct: made in house; host or cells: bacteria (pGEX-XIAP plasmid obtained from Dr. Colin S. Duckett)
Text: For the glutathione-S-transferase (GST)-pull down assays, ARTS was subcloned into the pGEX 4T™ (Pharmacia Biotech) construct; GST-ARTS fusion protein was generated by Polymerase Chain Reaction (PCR) using the following primers: • BamHI-5′-[…]-3′ (SEQ ID No: 4) and • EcoRI-5′ […]-3′ (SEQ ID No: 5) and cloned into BamHI and EcoRI sites in pGEX 4T. Preparation of Beads
For in vitro binding studies, recombinant GST-ARTS or GST-XIAP fusion proteins were purified from bacteria. After sonication, 0.1% Triton X-100 and protease inhibitors (Mini-Complete™, Roche) were added to the bacterial extract followed by 10,000 rotations per minute (RPM) centrifugation. Supernatants of bacterial extracts were collected and incubated in the presence of glutathione-Sepharose 4B beads (Amersham Biosciences) for 30 minute at 4° C. The beads were washed three times.
Cells were lysed in RIPA buffer (150 mM NaCl, 50 mM Tris-HCl (pH 8), 1% NP-40, 0.1% SDS, 0.5% deoxycholate acid containing protease inhibitors (mini Complete, Roche)). Samples were divided into two tubes; one was rotated for 4 h at 4° C. with GST-ARTS fusion protein coupled with the glutathione beads, or GST-XIAP fusion protein. The second tube was incubated with glutathione beads alone (negative control). Samples were centrifuged at 4000-RPM at 4° C. for 4 minute and washed five times in lysis buffer, then boiled in sample buffer for 5 minutes to elute bound proteins Proteins were separated on 12.5% SDS-PAGE gel followed by Western blot analysis using monoclonal anti-ARTS antibody (Sigma), monoclonal anti-XIAP antibody (BD Transduction Laboratories) or monoclonal anti-myc antibody (Clontech).

COS-7 cells [6] = experiment: Apoptosis assays (TUNEL, anti-H2A.X) in COS-7 cells; format: cell-based, African Green Monkey; design: induction of apoptosis (TUNEL): dose or concentration left out as unconfirmed; settings: transiently transfected COS-7 cells, staurosporine (STS) for 1 or 3 hours
Experimental: Apoptotic cells were detected using the anti-H2A.X antibody (Upstate; Paull, et al., 2000) or TUNEL. For TUNEL assays, COS-7 cells were transiently transfected with AU5-ARTS, AU5-ARTSΔC, AU5-ARTSmGTP and AU5-H5. Twenty-four hours after transfection, the cells were treated with staurosporine (STS) ([…]) for 1 or 3 hours, then fixed and permeabilized. Apoptosis levels were determined using the TUNEL. In situ™ cell death detection TMR kit (Roche) according to the manufacturer's protocol. All slides were coded and experiments were performed in a blind manner.
as §2

T2 sequence (P98170 whole entry, the tested form may be a part): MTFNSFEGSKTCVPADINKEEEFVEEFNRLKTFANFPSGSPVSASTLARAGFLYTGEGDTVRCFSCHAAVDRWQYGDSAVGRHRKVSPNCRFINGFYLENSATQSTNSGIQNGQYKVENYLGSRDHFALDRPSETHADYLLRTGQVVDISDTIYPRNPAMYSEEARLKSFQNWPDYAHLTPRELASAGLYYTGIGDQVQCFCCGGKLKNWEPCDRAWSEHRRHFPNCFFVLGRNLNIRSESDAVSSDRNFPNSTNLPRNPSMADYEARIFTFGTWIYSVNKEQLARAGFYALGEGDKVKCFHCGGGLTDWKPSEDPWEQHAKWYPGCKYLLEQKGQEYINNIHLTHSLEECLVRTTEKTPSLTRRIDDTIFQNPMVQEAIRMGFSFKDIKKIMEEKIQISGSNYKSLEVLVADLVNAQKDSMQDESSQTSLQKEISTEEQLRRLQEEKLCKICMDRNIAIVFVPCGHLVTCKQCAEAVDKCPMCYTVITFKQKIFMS
T1 sequence (P98170 whole entry): as the sequence (P98170 whole entry, the tested form may be a part) above
T3 sequence (P98170 whole entry): as the sequence (P98170 whole entry, the tested form may be a part) above

CC(C)C[C@@H](C=O)NC(=O)[C@H](CC(C)C)NC(=O)[C@H](CC(C)C)NC(=O)OCc1ccccc1 [MG132, reference compound] (Cbz-Leu-Leu-Leu-aldehyde)
ARTS-induced reduction of XIAP levels (XIAP [1]; cells treated for 2 hours with 20 mM MG132 prior to induction of apoptosis, data not shown): blocked ARTS-induced reduction of XIAP levels

COC(=O)CC(NC(=O)OC(C)(C)C)C(=O)CF (centres unmarked) [BOC, BOC-Asp(Ome)CH2F, reference compound]
formation of ARTS-XIAP complexes (XIAP [2]; COS-7 cells treated with staurosporine in the presence of caspase inhibitor BOC): did not inhibit, and in fact slightly increased | nuclear translocation of ARTS (COS-7 cells [3]): nuclear translocation of ARTS was blocked | sensitivity of the reduction of XIAP protein to caspase inhibition (XIAP [1]; COS-7 cells treated with staurosporine with or without BOC): not sensitive

B1: AU5-ARTSmGTP (other)
chain: MIKRFLEDTTDDGELSKFVKDFSGNASCHPPEAKTWASRPQVPEPRPQAPDLYDDDLEFRPPSRPQSSDNQQYFCAPAPLSPSARPRSPWGKLDPYDSSEDDKEYVGFATLPNQVHRKSVKKGFDFTLMVAGESGLENPTLVNSLFLTDLYRDRKLLGAEERIMQTVEITKHAVDIEEKGVRLRLTIVDTPGFGDAVNNTECWKPVAEYIDQQFEQYFRDESGLNRKNIQDNRVHCCLYFISPFGHGYGPSLRLLAPPGAVKGTGQEHQGQGCH
notes: not shown: AU5 tag at the N' terminus
binding result [4]: no binding

B2: ARTSmGTP: ARTS mutant, three amino acids (G K S with E N P) replaced at the GTP binding site (protein)
chain: MIKRFLEDTTDDGELSKFVKDFSGNASCHPPEAKTWASRPQVPEPRPQAPDLYDDDLEFRPPSRPQSSDNQQYFCAPAPLSPSARPRSPWGKLDPYDSSEDDKEYVGFATLPNQVHRKSVKKGFDFTLMVAGESGLENPTLVNSLFLTDLYRDRKLLGAEERIMQTVEITKHAVDIEEKGVRLRLTIVDTPGFGDAVNNTECWKPVAEYIDQQFEQYFRDESGLNRKNIQDNRVHCCLYFISPFGHGYGPSLRLLAPPGAVKGTGQEHQGQGCH
modifications: left off: small tags and cut ends
binding to XIAP in co-IP (XIAP [2]; COS-7 cells co-transfected with pcDNA-mycXIAP and AU5-tagged construct): Neither of these mutants bound to XIAP

B3: AU5-H5 (other, human, UniProt O43236-1 1-478, looked up)
chain: MDRSLGWQGNSVPEDRTEAGIKRFLEDTTDDGELSKFVKDFSGNASCHPPEAKTWASRPQVPEPRPQAPDLYDDDLEFRPPSRPQSSDNQQYFCAPAPLSPSARPRSPWGKLDPYDSSEDDKEYVGFATLPNQVHRKSVKKGFDFTLMVAGESGLGKSTLVNSLFLTDLYRDRKLLGAEERIMQTVEITKHAVDIEEKGVRLRLTIVDTPGFGDAVNNTECWKPVAEYIDQQFEQYFRDESGLNRKNIQDNRVHCCLYFISPFGHGLRPLDVEFMKALHQRVNIVPILAKADTLTPPEVDHKKRKIREEIEHFGIKIYQFPDCDSDEDEDFKLQDQALKESIPFAVIGSNTVVEARGRRVRGRLYPWGIVEVENPGHCDFVKLRTMLVRTHMQDLKDVTRETHYENYRAQCIQSMTRLVVKERNRNKLTRESGTDFPIPAVPPGTDPETEKLIREKDEELRRMQEMLHKIQKQMKENY
notes: Expressed in transfected COS-7 cells; The construct came from Dr. Seong-Jin Kim; also called pEF1-AU5-H5; H5 septin protein; not shown: AU5 tag
binding result [4]: no binding | binding result (GST-XIAP fusion protein): no binding

B4: AU5-ARTS ΔC (other)
chain: MIKRFLEDTTDDGELSKFVKDFSGNASCHPPEAKTWASRPQVPEPRPQAPDLYDDDLEFRPPSRPQSSDNQQYFCAPAPLSPSARPRSPWGKLDPYDSSEDDKEYVGFATLPNQVHRKSVKKGFDFTLMVAGESGLGKSTLVNSLFLTDLYRDRKLLGAEERIMQTVEITKHAVDIEEKGVRLRLTIVDTPGFGDAVNNTECWKPV
notes: 1-206 is 274 minus 68; also called AU5-ARTSDC; not shown: AU5 tag at the N' terminus
binding result (GST-XIAP fusion protein): no binding

B5: ARTSΔC: ARTS construct that lacks 68 amino acids at the unique ARTS C′-terminal sequence (protein)
chain: MIKRFLEDTTDDGELSKFVKDFSGNASCHPPEAKTWASRPQVPEPRPQAPDLYDDDLEFRPPSRPQSSDNQQYFCAPAPLSPSARPRSPWGKLDPYDSSEDDKEYVGFATLPNQVHRKSVKKGFDFTLMVAGESGLGKSTLVNSLFLTDLYRDRKLLGAEERIMQTVEITKHAVDIEEKGVRLRLTIVDTPGFGDAVNNTECWKPV
modifications: left off: small tags and cut ends
binding to GST-XIAP (XIAP [5]): Neither ARTSΔC nor H5 were able to bind to XIAP | induction of apoptosis (TUNEL) (COS-7 cells [6]): did not induce apoptosis
